Reference: US20250101111A1 (ARGENX, published 2025)
Where a chain is given by its changes, count along the chain named. In names and notes the source's numbering stands.

T1: human FcγRIIa on THP-1 cells (human, UniProt P12318 34-317)
T1 sequence (looked up): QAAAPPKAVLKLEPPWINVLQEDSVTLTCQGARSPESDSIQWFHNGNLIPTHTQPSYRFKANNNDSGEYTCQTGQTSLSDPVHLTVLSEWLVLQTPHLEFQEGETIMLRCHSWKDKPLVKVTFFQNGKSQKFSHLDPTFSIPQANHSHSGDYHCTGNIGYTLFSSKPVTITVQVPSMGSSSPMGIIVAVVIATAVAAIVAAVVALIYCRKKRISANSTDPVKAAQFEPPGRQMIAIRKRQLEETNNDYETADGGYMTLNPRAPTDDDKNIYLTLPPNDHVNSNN

B1: Fc-G236A-MST-HN (other, human, UniProt P01857-1 104-330, looked up)
chain: DKTHTCPPCPAPELLAGPSVFLFPPKPKDTLYITREPEVTCVVVDVSHEDPEVKFNWYVDGVEVHNAKTKPREEQYNSTYRVVSVLTVLHQDWLNGKEYKCKVSNKALPAPIEKTISKAKGQPREPQVYTLPPSRDELTKNQVSLTCLVKGFYPSDIAVEWESNGQPENNYKTTPPVLDSDGSFFLYSKLTVDKSRWQQGNVFSCSVMHEALKFHYTQKSLSLSPGK
notes: domain: Fc fragment; EU numbering
B2: human FcγRIIa-131H (receptor, UniProt P12318 34-218, looked up)
chain: QAAAPPKAVLKLEPPWINVLQEDSVTLTCQGARSPESDSIQWFHNGNLIPTHTQPSYRFKANNNDSGEYTCQTGQTSLSDPVHLTVLSEWLVLQTPHLEFQEGETIMLRCHSWKDKPLVKVTFFQNGKSQKFSHLDPTFSIPQANHSHSGDYHCTGNIGYTLFSSKPVTITVQVPSMGSSSPMGI
modifications: C-terminal biotin
notes: Bought, C-terminally biotinylated; captured on a streptavidin sensor
B3: human FcγRIIIb-NA1 (receptor, UniProt O75015 17-200, looked up)
chain: GMRTEDLPKAVVFLEPQWYRVLEKDSVTLKCQGAYSPEDNSTQWFHNENLISSQASSYFIDAATVDDSGEYRCQTNLSTLSDPVQLEVHVGWLLLQAPRWVFKEEDPIHLRCHSWKNTALHKVTYLQNGKDRKYFHHNSDFHIPKATLKDSGSYFCRGLVGSKNVSSETVNITITQGLAVSTIS
modifications: C-terminal biotin
notes: In-house, C-terminally biotinylated; captured on a streptavidin sensor; also called hFcγRIIIb-NA1
B4: human FcγRIIb (receptor, UniProt P31994 43-217, looked up)
chain: TPAAPPKAVLKLEPQWINVLQEDSVTLTCRGTHSPESDSIQWFHNGNLIPTHTQPSYRFKANNNDSGEYTCQTGQTSLSDPVHLTVLSEWLVLQTPHLEFQEGETIVLRCHSWKDKPLVKVTFFQNGKSKKFSRSDPNFSIPQANHSHSGDYHCTGNIGYTLYSSKPVTITVQAP
modifications: C-terminal biotin
notes: Bought, C-terminally biotinylated; captured on a streptavidin sensor; also called hFcγRIIb
B5: Fc-MST-HN (other, human, UniProt P01857-1 104-330, looked up)
chain: B1 chain with A16G
notes: domain: Fc fragment; MST-HN = M252Y S254T T256E H433K N434F (EU numbering); also called IgG1-Fc MST-HN
B6: human FcγRIIa-131R (receptor, UniProt P12318 34-218, looked up)
chain: B2 chain with H134R
modifications: C-terminal biotin
notes: as for B2
B7: human FcγRIIIb-NA2 (receptor, UniProt O75015 17-200, looked up)
chain: B3 chain with R20S, N49S, D66N, V90I
modifications: C-terminal biotin
notes: In-house, C-terminally biotinylated; captured on a streptavidin sensor; also called hFcγRIIIb-NA2
B8: Fc-IHH (other, human, UniProt P01857-1 104-330, looked up)
chain: B1 chain with A16G, Y32M, I33A, T34S, E36T, H90A, K213H, F214N, H215A
notes: domain: Fc fragment; IHH = I253A H310A H435A (EU numbering); also called IgG1-Fc-IHH
B9: Fc-ΔG236 (other)
chain: DKTHTCPPCPAPELLGPSVFLFPPKPKDTLMISRTPEVTCVVVDVSHEDPEVKFNWYVDGVEVHNAKTKPREEQYNSTYRVVSVLTVLHQDWLNGKEYKCKVSNKALPAPIEKTISKAKGQPREPQVYTLPPSRDELTKNQVSLTCLVKGFYPSDIAVEWESNGQPENNYKTTPPVLDSDGSFFLYSKLTVDKSRWQQGNVFSCSVMHEALHNHYTQKSLSLSPGK
B10: Fc-ΔG236-MST-HN (other)
chain: B9 chain with M31Y, S33T, T35E, H212K, N213F

What was measured:
[1] = biological target: T2, soluble human FcRn (human, UniProt P55899 24-297; P61769 21-119); experiment: SPR (IBIS MX96), Fc fragment immobilised, soluble FcRn titrated, pH 6.0, equilibrium 1:1 fit
T2 construct: Made in HEK293F cells from two vectors; also called sFcRn; not shown: C-terminal BirA deca-His-tag
Experimental: (§1) Regeneration of the sensor surface between the cycles was performed by injection of 10 mM Gly-HCl pH 2.4. Affinity calculations were carried out by performing an equilibrium analysis interpolating to an Rmax of 200 to 600, depending on the assay, and fitting a 1:1 Langmuir binding model, assuming equilibrium to be reached after 360s of IgG-Fc containing analyte injections. Analysis and calculations were performed using Scrubber Software Version 2 (BioLogic Software), Excel (Microsoft) and Graphpad Prism (Prism).
(§2) Sensorgrams of a representative of three independent affinity measurements were used to determine the binding of the human IgG1-Fc variants to human FcγRs and human FcRn at pH 7.4 and pH 6.0. […] KD values were derived by performing an equilibrium analysis and fitting a 1:1 Langmuir binding model. […] No binding was marked as non-determinable (n.d.). Data are presented in Tables S1-S4 as mean±standard deviation.

[2] = biological target: T2, soluble human FcRn; experiment: SPR (IBIS MX96), Fc fragment immobilised, soluble FcRn titrated, pH 7.4, equilibrium 1:1 fit
Experimental: as §1, §2

[3] = biological target: T3, human FcγRIa (human, UniProt P12314 16-288); experiment: SPR (IBIS MX96), FcγR captured on sensor, Fc fragment titrated, pH 7.4, equilibrium 1:1 fit
T3 construct: Bought, C-terminally His-tagged; captured on the sensor by biotinylated anti-His mIgG1; also called hFcγRIa; not shown: C-terminal His tag
Experimental: as §1, with “The sensor surface was regenerated between the cycles by subsequent injections of 20 mM Tris-HCl, 150 mM NaCl pH 8.8 and 20 mM H₃PO₄ pH 2.4. […] Regeneration” for “Regeneration”

[4] = biological target: B6; experiment: SPR, Fc fragments on captured FcγRs, pH 7.4
Experimental: as §1, with “The sensor surface was regenerated between the cycles by subsequent injections of 20 mM Tris-HCl, 150 mM NaCl pH 8.8 and 20 mM H₃PO₄ pH 2.4. […] Regeneration” for “Regeneration”

[5] = biological target: B2; experiment: SPR, Fc fragments on captured FcγRs, pH 7.4
Experimental: as §1, with “The sensor surface was regenerated between the cycles by subsequent injections of 20 mM Tris-HCl, 150 mM NaCl pH 8.8 and 20 mM H₃PO₄ pH 2.4. […] Regeneration” for “Regeneration”

[6] = biological target: T1, human FcγRIIa on THP-1 cells; experiment: cell-based or functional assay
[7] = biological target: T4, human FcRn, endogenous, in THP-1 cells and blood monocytes (human, UniProt P55899 24-365; P61769 21-119); experiment: cell-based or functional assay
[8] = biological target: B8; experiment: SPR (IBIS MX96), FcγR captured on sensor, Fc fragment titrated, pH 7.4, equilibrium 1:1 fit
Experimental: as §1, with “The sensor surface was regenerated between the cycles by subsequent injections of 20 mM Tris-HCl, 150 mM NaCl pH 8.8 and 20 mM H₃PO₄ pH 2.4. […] Regeneration” for “Regeneration”

[9] = biological target: B1; experiment: as above
Experimental: as §1, with “The sensor surface was regenerated between the cycles by subsequent injections of 20 mM Tris-HCl, 150 mM NaCl pH 8.8 and 20 mM H₃PO₄ pH 2.4. […] Regeneration” for “Regeneration”

[10] = biological target: T5, Fc-G236A (human, UniProt P01857-1 104-330 = IgG part, G236A); experiment: as above
T5 construct: domain: Fc fragment; Positions in EU numbering; also called IgG1-Fc G236A
Experimental: as §1, with “The sensor surface was regenerated between the cycles by subsequent injections of 20 mM Tris-HCl, 150 mM NaCl pH 8.8 and 20 mM H₃PO₄ pH 2.4. […] Regeneration” for “Regeneration”

[11] = biological target: B5; experiment: as above
Experimental: as §1, with “The sensor surface was regenerated between the cycles by subsequent injections of 20 mM Tris-HCl, 150 mM NaCl pH 8.8 and 20 mM H₃PO₄ pH 2.4. […] Regeneration” for “Regeneration”

[12] = biological target: T6, Fc-WT (human, UniProt P01857-1 104-330 = IgG part, limits assumed); experiment: as above
T6 construct: domain: Fc fragment; Fc-only fragment made by Evitria; also called IgG1-Fc wild-type; human IgG1-Fc fragment WT
Experimental: as §1, with “The sensor surface was regenerated between the cycles by subsequent injections of 20 mM Tris-HCl, 150 mM NaCl pH 8.8 and 20 mM H₃PO₄ pH 2.4. […] Regeneration” for “Regeneration”

[13] = biological target: B3; experiment: SPR, Fc fragments on captured FcγRs, pH 7.4
Experimental: as §1, with “The sensor surface was regenerated between the cycles by subsequent injections of 20 mM Tris-HCl, 150 mM NaCl pH 8.8 and 20 mM H₃PO₄ pH 2.4. […] Regeneration” for “Regeneration”

[14] = biological target: T7, human FcγRIIIa-158F (human, UniProt P08637 17-208, C-terminal biotin); experiment: SPR, Fc fragments on captured FcγRs, pH 7.4
T7 construct: Bought, C-terminally biotinylated; captured on a streptavidin sensor; also called hFcγRIIIa-158F
Experimental: as §1, with “The sensor surface was regenerated between the cycles by subsequent injections of 20 mM Tris-HCl, 150 mM NaCl pH 8.8 and 20 mM H₃PO₄ pH 2.4. […] Regeneration” for “Regeneration”

[15] = biological target: B7; experiment: SPR, Fc fragments on captured FcγRs, pH 7.4
Experimental: as §1, with “The sensor surface was regenerated between the cycles by subsequent injections of 20 mM Tris-HCl, 150 mM NaCl pH 8.8 and 20 mM H₃PO₄ pH 2.4. […] Regeneration” for “Regeneration”

[16] = biological target: T8, human FcγRIIIa-158V (human, UniProt P08637 17-208, C-terminal biotin); experiment: SPR, Fc fragments on captured FcγRs, pH 7.4
T8 construct: Bought, C-terminally biotinylated; captured on a streptavidin sensor; also called hFcγRIIIa-158V
Experimental: as §1, with “The sensor surface was regenerated between the cycles by subsequent injections of 20 mM Tris-HCl, 150 mM NaCl pH 8.8 and 20 mM H₃PO₄ pH 2.4. […] Regeneration” for “Regeneration”

[17] = biological target: T4, human FcRn, endogenous, in THP-1 cells …; experiment: intracellular FcRn occupancy assay, flow cytometry: THP-1 FcγRIIa K.O. cells preloaded with IVIg, free FcRn stained with DL650-labeled anti-FcRn Fab
Experimental: In short, 1×10⁵ cells were loaded with 5-fold dilution series of IgG variants and fragments thereof for 2 h, ranging from 4 to 500 nM under culture conditions, as specified above. […] 95 μL of this cell solution was then combined with 5 μL of 20× concentrated dilution series of IgG variants and incubated for another 2 h under culture conditions. Thereafter, cells were transferred to 96-well V-bottom plate (Corning) and incubated on ice for 2 min. Cells were subsequently spun down for 3 min at 450×g at 4° C. and the supernatant was discarded. Following the same procedure, cells were washed five times with 150 μL ice-cold medium, followed by one wash with 150 μL 1×PBS supplemented with 1% (v/v) FCS at pH 7.4 and one wash with 150 μL of 1×PBS supplemented with 1% (v/v) FCS at pH 6.0. Cells were then fixed and permeabilized using both solutions of a Fixation/Permeabilization Kit (BD Biosciences) adapted to pH 6.0 after addition of MES (Thermo Fisher Scientific) to a final concentration of 0.5M, otherwise following manufacturer's instructions. […] Cells were washed twice with 150 μL 1×PBS supplemented with 1% (v/v) FCS at pH 6.0, spun down at 450×g at 4° C. for 3 min and the supernatants were discarded. Finally, cells were resuspended in 50 μL of the same buffer, transferred to Micronics tubes (Micronic) on ice and measured in flow cytometry.

T3 sequence (P12314 16-288 limits assumed): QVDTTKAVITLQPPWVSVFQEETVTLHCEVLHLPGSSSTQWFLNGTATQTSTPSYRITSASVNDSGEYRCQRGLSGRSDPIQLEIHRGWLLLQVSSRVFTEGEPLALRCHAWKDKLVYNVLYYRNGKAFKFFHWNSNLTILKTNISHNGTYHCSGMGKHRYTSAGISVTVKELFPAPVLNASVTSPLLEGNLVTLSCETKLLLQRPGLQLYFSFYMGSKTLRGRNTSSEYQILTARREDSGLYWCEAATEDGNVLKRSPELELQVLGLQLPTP

Kd [1] [nM]	Kd [2] [nM]	Kd [3] [nM]	Kd [8] [nM]	Kd [9] [nM]	Kd [10] [nM]	Kd [11] [nM]	Binder	also measured
23.4	1340	10.8	–	–	–	–	B1	fold increase in affinity compared to Fc-MST-HN [4]: ~6 fold; fold increase in binding compared to Fc-WT [4]: 2 fold; fold increase in affinity compared to Fc-MST-HN [5]: ~9 fold; fold increase in binding compared to Fc-WT [5]: 2 fold; Fold-intensity of intracellular accumulation compared to Fc-WT (Image Stream, THP-1 cells) [6]: 1.87 fold of Fc-WT; Fold-intensity of intracellular accumulation compared to Fc-WT (Image Stream, THP-1 cells) [7]: 1.87 fold of Fc-WT
–	–	–	> 2000	189	91.1	1650	B2	–
–	–	–	> 2000	> 2000	> 2000	> 2000	B3	Kd [12]: > 2000 nM
–	–	–	> 2000	> 2000	> 2000	> 2000	B4	–
18.9	1410	5.9	–	–	–	–	B5	fold reduction in binding compared to Fc-WT [13]: ≥ 3 fold; fold reduction in binding compared to Fc-WT [14]: ≥ 3 fold; fold reduction in binding compared to Fc-WT [4]: ≥ 3 fold; fold reduction in binding compared to Fc-WT [5]: ≥ 3 fold; fold reduction in binding compared to Fc-WT [15]: ≥ 3 fold; fold reduction in binding compared to Fc-WT [16]: ≥ 3 fold
–	–	–	> 2000	269	166	1640	B6	–
–	–	–	> 2000	> 2000	> 2000	> 2000	B7	Kd [12]: > 2000 nM
–	–	6.1	–	–	–	–	B8	fold reduction in binding compared to Fc-WT [13]: ≥ 3 fold; fold reduction in binding compared to Fc-WT [14]: ≥ 3 fold; fold reduction in binding compared to Fc-WT [4]: ≥ 3 fold; fold reduction in binding compared to Fc-WT [5]: ≥ 3 fold; fold reduction in binding compared to Fc-WT [15]: ≥ 3 fold; fold reduction in binding compared to Fc-WT [16]: ≥ 3 fold; binding result [17]: no binding (tested: 500 nM)
130	–	–	–	–	–	–	B9	–
15.4	1420	–	–	–	–	–	B10	–
